According to patent US20200317768A1 (published 2020):

T1: cynomolgus monkey FcγRIIIaS extracellular domain, C-terminal His-tag (cynomolgus monkey, UniProt Q8SPW2 21-206 at identity 1.00))
T1 construct: also called cyno FcγRIIIaS; FcgRIIIaS
T1 chain: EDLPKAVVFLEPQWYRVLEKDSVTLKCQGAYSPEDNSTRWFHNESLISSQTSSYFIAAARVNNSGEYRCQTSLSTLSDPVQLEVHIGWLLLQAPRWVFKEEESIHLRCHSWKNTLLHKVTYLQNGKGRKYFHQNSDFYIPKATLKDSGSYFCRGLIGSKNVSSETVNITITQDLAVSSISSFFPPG

T2: human FcγRIIaH extracellular domain, C-terminal His-tag (human, UniProt P12318 34-217)
T2 construct: also called human FcγRIIa (type H); FcgRIIaH
T2 sequence: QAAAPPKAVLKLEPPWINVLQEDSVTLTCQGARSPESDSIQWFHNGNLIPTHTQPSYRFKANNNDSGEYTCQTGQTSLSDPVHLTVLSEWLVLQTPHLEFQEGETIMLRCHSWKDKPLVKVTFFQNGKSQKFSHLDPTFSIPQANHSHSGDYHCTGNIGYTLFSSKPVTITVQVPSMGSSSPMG

T3: cynomolgus monkey FcγRIIb extracellular domain with C-terminal His-tag (cynomolgus monkey)
T3 construct: also called cyno FcgRIIb; cynoFcγRIIb
T3 chain: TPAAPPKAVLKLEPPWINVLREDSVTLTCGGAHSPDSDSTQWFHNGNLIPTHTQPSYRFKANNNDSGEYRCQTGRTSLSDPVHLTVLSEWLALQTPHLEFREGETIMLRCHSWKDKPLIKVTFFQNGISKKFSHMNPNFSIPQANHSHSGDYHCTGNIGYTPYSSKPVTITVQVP

T4: cynomolgus monkey FcγRIIa2 extracellular domain with C-terminal His-tag (cynomolgus monkey)
T4 construct: also called cyno FcgRIIa2; cynoFcγRIIa2
T4 chain: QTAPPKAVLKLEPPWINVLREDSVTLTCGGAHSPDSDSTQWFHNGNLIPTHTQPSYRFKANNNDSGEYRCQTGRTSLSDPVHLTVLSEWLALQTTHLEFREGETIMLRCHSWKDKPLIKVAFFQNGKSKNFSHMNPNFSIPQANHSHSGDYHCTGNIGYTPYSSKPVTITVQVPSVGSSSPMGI

T5: cynomolgus monkey FcγRIIIaS extracellular domain with C-terminal His-tag (cynomolgus monkey, UniProt Q8SPW2 21-206 at identity 1.00))
T5 construct: also called cyno FcgRIIIaS; cynoFcγRIIIaS
T5 chain: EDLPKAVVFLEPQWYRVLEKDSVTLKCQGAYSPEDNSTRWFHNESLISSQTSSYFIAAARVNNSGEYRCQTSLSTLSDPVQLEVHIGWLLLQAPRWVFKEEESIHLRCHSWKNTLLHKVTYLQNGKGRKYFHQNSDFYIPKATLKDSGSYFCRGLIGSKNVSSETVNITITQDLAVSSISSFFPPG

T6: human FcγRIIb extracellular domain with C-terminal His-tag (human, UniProt P31994 43-217)
T6 construct: also called human FcgRIIb
T6 sequence: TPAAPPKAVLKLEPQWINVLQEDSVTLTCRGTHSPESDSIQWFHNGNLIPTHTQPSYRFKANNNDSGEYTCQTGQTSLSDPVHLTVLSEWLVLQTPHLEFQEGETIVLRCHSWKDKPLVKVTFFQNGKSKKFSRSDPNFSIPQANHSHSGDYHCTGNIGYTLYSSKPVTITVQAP

T7: human FcγRIIaR extracellular domain with C-terminal His-tag (human, UniProt P12318 34-217)
T7 construct: also called human FcgRIIaR; FcγRIIa (type R)
T7 chain: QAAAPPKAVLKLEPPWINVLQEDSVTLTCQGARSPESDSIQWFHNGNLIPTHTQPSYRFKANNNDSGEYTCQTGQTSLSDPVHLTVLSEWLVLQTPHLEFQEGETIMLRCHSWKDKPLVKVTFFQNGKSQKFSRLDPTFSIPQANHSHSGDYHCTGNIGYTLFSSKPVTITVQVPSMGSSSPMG

B1: M103205H795-MY009/M103202L889-SK1 (antibody, human IgG1, kappa)
heavy: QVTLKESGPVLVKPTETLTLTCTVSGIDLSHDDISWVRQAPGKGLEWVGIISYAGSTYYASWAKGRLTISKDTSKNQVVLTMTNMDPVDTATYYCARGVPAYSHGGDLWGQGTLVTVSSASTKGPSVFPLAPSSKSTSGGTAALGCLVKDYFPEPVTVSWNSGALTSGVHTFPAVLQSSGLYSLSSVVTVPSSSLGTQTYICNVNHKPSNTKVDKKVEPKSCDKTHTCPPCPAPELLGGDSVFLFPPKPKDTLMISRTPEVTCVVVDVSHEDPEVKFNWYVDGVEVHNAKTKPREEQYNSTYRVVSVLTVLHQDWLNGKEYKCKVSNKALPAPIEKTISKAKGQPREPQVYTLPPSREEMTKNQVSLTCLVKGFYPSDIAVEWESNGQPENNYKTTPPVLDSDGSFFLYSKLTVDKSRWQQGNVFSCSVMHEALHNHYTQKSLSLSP
light: DIVMTQSPATLSLSPGERATLSCTSSQSVYHANWLSWFQQKPGQPPKLLIYWASTLAYGVPSRFSGSGSGTDFTLTISSLQPEDAATYYCAGGYGGGRYAFGQGTKVEIKRTVAAPSVFIFPPSDEQLKSGTASVVCLLNNFYPREAKVQWKVDNALQSGNSQESVTEQDSKDSTYSLSSTLTLSKADYEKHKVYACEVTHQGLSSPVTKSFNRGEC
notes: CH MY009 = SG1 with P238D (EU numbering); also called MS1032LO06-MY009
B2: MS_M103205H795-SG1/M103202L889-SK1 (antibody, human IgG1, kappa)
heavy: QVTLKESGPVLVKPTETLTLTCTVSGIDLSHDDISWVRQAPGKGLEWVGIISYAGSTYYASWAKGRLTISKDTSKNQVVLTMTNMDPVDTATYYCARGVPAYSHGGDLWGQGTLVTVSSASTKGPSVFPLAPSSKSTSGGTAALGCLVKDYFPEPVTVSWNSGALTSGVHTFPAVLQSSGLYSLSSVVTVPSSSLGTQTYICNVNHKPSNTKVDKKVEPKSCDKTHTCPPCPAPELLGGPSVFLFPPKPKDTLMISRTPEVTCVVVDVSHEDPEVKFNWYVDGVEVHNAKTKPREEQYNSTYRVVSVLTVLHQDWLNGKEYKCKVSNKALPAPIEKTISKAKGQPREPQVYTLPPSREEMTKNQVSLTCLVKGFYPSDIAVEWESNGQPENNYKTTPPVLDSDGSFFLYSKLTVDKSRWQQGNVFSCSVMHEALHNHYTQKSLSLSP
light: DIVMTQSPATLSLSPGERATLSCTSSQSVYHANWLSWFQQKPGQPPKLLIYWASTLAYGVPSRFSGSGSGTDFTLTISSLQPEDAATYYCAGGYGGGRYAFGQGTKVEIKRTVAAPSVFIFPPSDEQLKSGTASVVCLLNNFYPREAKVQWKVDNALQSGNSQESVTEQDSKDSTYSLSSTLTLSKADYEKHKVYACEVTHQGLSSPVTKSFNRGEC
notes: Parent antibody of the Fc variants; also called MS1032LO06-SG1

Columns and labels:
[1] = target: T1, cynomolgus monkey FcγRIIIaS …; assay: SPR (BIACORE) 25C, antibody captured, FcgR as analyte; weak binding, KD by Equation 2
Procedure: (§1) The kinetic analysis of interactions between these antibodies and FcγR was carried out using BIACORE® T200 or BIACORE® 4000 (GE Healthcare). HBS-EP+ (GE Healthcare) was used as the running buffer, and the measurement temperature was set to 25° C. A chip produced by immobilizing Protein A. Protein A/G or mouse anti-human IgG kappa light chain (BD Biosciences) onto a Series S Sensor Chip CM4 or CM5 (GE Healthcare) by the amine-coupling method was used. […] After the measurement, the antibody captured on the chip was washed off by allowing reaction with 10 mM glycine-HCl, pH1.5 and 25 mM NaOH so that the chip was regenerated and used repeatedly. The sensorgrams obtained as measurement results were analyzed by the 1:1 Langmuir binding model using the BIACORE® Evaluation Software to calculate the binding rate constant ka (L/mol/s) and dissociation rate constant kd (l/s), and the dissociation constant KD (mol/L) was calculated from these values. […] Regarding such interactions, KD values were calculated using the following 1:1 binding model described in BIACORE® T100 Software Handbook BR1006-48 Edition AE.
(§2) The behavior of interacting molecules according to the 1:1 binding model on BIACORE® can be described by Equation 1: Req=C·R max/(KD+C)+RI, wherein, Req is a plot of steady-state binding levels to analyte concentration. […]

[2] = target: T2, human FcγRIIaH extracellular domain, …; assay: as above
Procedure: as §1, §2

[3] = target: T8, human FcγRIIIaV extracellular domain with C-terminal His-tag (human, UniProt P08637 17-208); assay: SPR (BIACORE); KD of SG1 / KD of variant;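 also: relative to parent M103205H795-SG1 carrying the SG1 human heavy chain constant region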
T8 construct: also called human FcgRIIIaV
T8 sequence (P08637 17-208 F176V): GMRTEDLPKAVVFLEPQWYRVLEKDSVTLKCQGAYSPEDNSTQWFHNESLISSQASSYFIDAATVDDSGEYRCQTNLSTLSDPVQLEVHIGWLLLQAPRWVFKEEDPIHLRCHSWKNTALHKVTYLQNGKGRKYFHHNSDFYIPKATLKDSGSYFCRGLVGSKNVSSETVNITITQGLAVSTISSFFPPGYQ

[4] = target: T3, cynomolgus monkey FcγRIIb extracellular …; assay: SPR (BIACORE); KD of SG1 / KD of variant;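 also: relative to parent M103205H795-SG1 carrying the SG1 human heavy chain constant region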
[5] = target: T4, cynomolgus monkey FcγRIIa2 …; assay: SPR (BIACORE); KD of SG1 / KD of variant;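 also: relative to parent M103205H795-SG1 carrying the SG1 human heavy chain constant region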
[6] = target: T5, cynomolgus monkey FcγRIIIaS …; assay: SPR (BIACORE); KD of SG1 / KD of variant;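 also: relative to parent M103205H795-SG1 carrying the SG1 human heavy chain constant region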
[7] = target: T6, human FcγRIIb extracellular domain with …; assay: SPR (BIACORE); KD of SG1 / KD of variant
[8] = target: T7, human FcγRIIaR extracellular domain …; assay: SPR (BIACORE); KD of SG1 / KD of variant

| Kd [1] [µM] | Kd [2] [µM] | KD fold (SG1 = 1) [3] [fold] | KD fold (SG1 = 1) [4] [fold] | KD fold (SG1 = 1) [5] [fold] | KD fold (SG1 = 1) [6] [fold] | KD fold (SG1 = 1) [7] [fold] | KD fold (SG1 = 1) [8] [fold] | Binder |
| --- | --- | --- | --- | --- | --- | --- | --- | --- |
| 100 | 75 |  |  |  |  |  |  | B1 |
|  |  | 1 | 1 | 1 | 1 | 1 | 1 | B2 |
